Values belong to the binder of their own block, whether it stands above or below them. Starred links: 1 amine or outer side, 2 acyl side, 3 side chain; linkers in the order of their positions; H or OH if unused. Positions of bridges follow the written chain, without caps; N, C: chain ends. Non-standard residues stand in square brackets, D forms with d. No end group written: not given here. N,N‑dimethylasparagine = N,N-dimethylasparagine, CN(C)C(=O)C[C@H](N[*:1])C(=O)[*:2]; 2Nal(6-OH) = N[C@@H](Cc1ccc2cc(O)ccc2c1)C(=O)O; Trp(7-Me) = Cc1cccc2c(C[C@H](N)C(=O)O)c[nH]c12; d(hLys(Me3)) = C[N+](C)(C)CCCCC[C@@H](N)C(=O)O; AEF = NCCOc1ccc(C[C@H](N)C(=O)O)cc1; 3Pal = N[C@@H](Cc1cccnc1)C(=O)O; Lipidated = not defined here; NMeK = CN[C@@H](CCCCN)C(=O)O; Pen = CC(C)(S)[C@H](N)C(=O)O; lipid = not defined here; Thp = NC1(C(=O)O)CCOCC1; Sar = CNCC(=O)O
Target: T1, interleukin-23 receptor (IL-23R), Q5VWK5
T1 chain: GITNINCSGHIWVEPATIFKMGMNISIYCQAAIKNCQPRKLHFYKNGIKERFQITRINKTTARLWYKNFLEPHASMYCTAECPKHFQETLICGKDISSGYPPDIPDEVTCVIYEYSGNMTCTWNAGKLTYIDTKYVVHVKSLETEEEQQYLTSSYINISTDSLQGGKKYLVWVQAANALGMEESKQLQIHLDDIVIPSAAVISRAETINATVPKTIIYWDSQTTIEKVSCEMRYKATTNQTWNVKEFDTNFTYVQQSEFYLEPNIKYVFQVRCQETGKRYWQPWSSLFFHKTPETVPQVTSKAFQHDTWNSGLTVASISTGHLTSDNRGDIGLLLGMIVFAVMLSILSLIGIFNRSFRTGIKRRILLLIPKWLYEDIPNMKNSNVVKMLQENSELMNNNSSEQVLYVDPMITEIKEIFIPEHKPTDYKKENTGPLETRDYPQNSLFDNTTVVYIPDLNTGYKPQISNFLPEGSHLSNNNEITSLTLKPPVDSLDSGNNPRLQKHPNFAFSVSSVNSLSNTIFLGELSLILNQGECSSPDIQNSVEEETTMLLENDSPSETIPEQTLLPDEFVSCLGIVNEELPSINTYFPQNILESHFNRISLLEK
Test: cell-based or functional assay

PBMC pSTAT3 IC50: < 1 nM
B2: SEQ ID NO: 239 (peptide)
peptide: [d(hLys(Me3))][Pen][N,N‑dimethylasparagine]T[Trp(7-Me)]K(lipid)[Pen][AEF][2Nal(6-OH)][Thp]EN[3Pal][Sar]
modifications: disulfide 2-7 (inferred); ends not checked; also: Lys6 lipidated, lipid not given here

PBMC pSTAT3 IC50: < 1 nM
B3: SEQ ID NO: 241 (peptide)
peptide: [Pen]NT[Trp(7-Me)]K(Ac)[Pen][AEF][2Nal(6-OH)][Thp]K(Ac)N[3Pal][Sar]K(lipid)
modifications: disulfide 1-6 (inferred); ends not checked; also: Lys14 lipidated, lipid not given here

PBMC pSTAT3 IC50: < 1 nM
B4: SEQ ID NO: 255 (peptide)
peptide: R[Pen]NT[Trp(7-Me)]K(Ac)[Pen][2‑amino‑3‑(4-(2-aminoethoxy)phenyl)propanoic acid][2‑amino‑3‑(6-hydroxynaphthalen-2-yl)propanoic acid][Thp]K(Ac)N[3Pal][Sar]K
modifications: disulfide 2-7 (inferred); not fully specified (residue 15); ends not checked; also: K15: lipidated lysine, lipid not given here

PBMC pSTAT3 IC50: < 1 nM
B10: SEQ ID NO: 244 (peptide)
peptide: R[Pen]NT[Trp(7-Me)]K(Ac)[Pen][AEF][2Nal(6-OH)][Thp]EN[3Pal][Sar]K(lipid)
modifications: disulfide 2-7 (inferred); ends not checked; also: Lys15 lipidated, lipid not given here

PBMC pSTAT3 IC50: < 1 nM
B14: SEQ ID NO: 229 (peptide)
peptide: K(lipid)[Pen]NT[Trp(7-Me)]K(Ac)[Pen][AEF][2Nal(6-OH)][Thp]EN[3Pal][Sar]
modifications: disulfide 2-7 (inferred); ends not checked; also: Lys1 lipidated, lipid not given here

PBMC pSTAT3 IC50: < 1 nM
B15: SEQ ID NO: 254 (peptide)
peptide: R[Pen]NT[Trp(7-Me)]K(Ac)[Pen][2‑amino‑3‑(4-(2-aminoethoxy)phenyl)propanoic acid][2‑amino‑3‑(6-hydroxynaphthalen-2-yl)propanoic acid][Thp]K(Ac)N[3Pal][Sar]K
modifications: disulfide 2-7 (inferred); not fully specified (residue 15); ends not checked; also: K15: lipidated lysine, lipid not given here

PBMC pSTAT3 IC50: < 1 nM
B17: SEQ ID NO: 256 (peptide)
peptide: [Pen]NT[Trp(7-Me)]K(Ac)[Pen][2‑amino‑3‑(4-(2-aminoethoxy)phenyl)propanoic acid][2‑amino‑3‑(6-hydroxynaphthalen-2-yl)propanoic acid][Thp]K(Ac)N[3Pal][Sar]K
modifications: disulfide 1-6 (inferred); not fully specified (residue 14); ends not checked; also: K14: lipidated lysine, lipid not given here

The next lines start with the binder.

B1: SEQ ID NO: 210 (peptide)
peptide: [(R)‑3‑carboxy‑2‑(4-(((R)-5-carboxy-5-hydrazineylpentyl)amino)-4-oxobutanamido)‑N,N,N‑trimethylpropan‑1‑aminium][Pen]NT[Trp(7-Me)]K(Ac)[Pen][2‑amino‑3‑(4-(2-aminoethoxy)phenyl)propanoic acid][2‑amino‑3‑(6-hydroxynaphthalen-2-yl)propanoic acid][Thp]EN[3Pal][NMeK]
modifications: disulfide 2-7 (inferred); not fully specified (residue 14); ends not checked; also: X14: lipidated N-methyl-lysine, lipid not given here
PBMC pSTAT3 IC50: < 1 nM

B5: SEQ ID NO: 216 (peptide)
peptide: K(lipid)[Pen]NT[Trp(7-Me)]K(Ac)[Pen][2‑amino‑3‑(4-(2-aminoethoxy)phenyl)propanoic acid][2‑amino‑3‑(6-hydroxynaphthalen-2-yl)propanoic acid][Thp]K(Ac)N[3Pal][Sar]
modifications: disulfide 2-7 (inferred); ends not checked; also: Lys1 lipidated, lipid not given here
PBMC pSTAT3 IC50: < 0.1 nM

B6: SEQ ID NO: 193 (peptide)
peptide: [Pen]ET[Trp(7-Me)]K(Ac)[Pen][2‑amino‑3‑(4-(2-aminoethoxy)phenyl)propanoic acid][2‑amino‑3‑(6-hydroxynaphthalen-2-yl)propanoic acid][Thp]K(Lipidated)N[3Pal][Sar]
modifications: disulfide 1-6 (inferred); ends not checked; also: K10: lipidated lysine, lipid not given here
PBMC pSTAT3 IC50: < 1 nM

B7: SEQ ID NO: 215 (peptide)
peptide: [Pen]ET[Trp(7-Me)]K(Ac)[Pen][2‑amino‑3‑(4-(2-aminoethoxy)phenyl)propanoic acid][2‑amino‑3‑(6-hydroxynaphthalen-2-yl)propanoic acid][Thp]K(lipid)N[3Pal][Sar]
modifications: disulfide 1-6 (inferred); ends not checked; also: K10: lipidated lysine, lipid not given here
PBMC pSTAT3 IC50: < 0.1 nM

B8: SEQ ID NO: 214 (peptide)
peptide: [Pen]ET[Trp(7-Me)]K(lipid)[Pen][2‑amino‑3‑(4-(2-aminoethoxy)phenyl)propanoic acid][2‑amino‑3‑(6-hydroxynaphthalen-2-yl)propanoic acid][Thp]K(Ac)N[3Pal][Sar]
modifications: disulfide 1-6 (inferred); ends not checked; also: K5: lipidated lysine, lipid not given here
PBMC pSTAT3 IC50: < 1 nM

B9: SEQ ID NO: 221 (peptide)
peptide: R[Pen]NT[Trp(7-Me)]K(Ac)[Pen][2‑amino‑3‑(4-(2-aminoethoxy)phenyl)propanoic acid][2‑amino‑3‑(6-hydroxynaphthalen-2-yl)propanoic acid][Thp]K(Ac)N[3Pal][Sar]K(lipid)
modifications: disulfide 2-7 (inferred); ends not checked; also: Lys15 lipidated, lipid not given here
PBMC pSTAT3 IC50: > 1 nM

Binder: R[Pen]NT[Trp(7-Me)]K(Ac)[Pen][2‑amino‑3‑(4-(2-aminoethoxy)phenyl)propanoic acid][2‑amino‑3‑(6-hydroxynaphthalen-2-yl)propanoic acid][Thp]EN[3Pal][Sar] (disulfide 2-7 (inferred); ends not checked) [SEQ ID NO: 217]
PBMC pSTAT3 IC50: < 0.1 nM

B11: SEQ ID NO: 204 (peptide)
peptide: [(R)‑3‑carboxy‑2‑(4-(((R)-5-carboxy-5-hydrazineylpentyl)amino)-4-oxobutanamido)‑N,N,N‑trimethylpropan‑1‑aminium][Pen]NT[Trp(7-Me)]K(Ac)[Pen][2‑amino‑3‑(4-(2-aminoethoxy)phenyl)propanoic acid][2‑amino‑3‑(6-hydroxynaphthalen-2-yl)propanoic acid][Thp]EN[3Pal][NMeK]
modifications: disulfide 2-7 (inferred); not fully specified (residue 14); ends not checked; also: X14: lipidated N-methyl-lysine, lipid not given here
PBMC pSTAT3 IC50: < 1 nM

B12: SEQ ID NO: 218 (peptide)
peptide: R[Pen]NT[Trp(7-Me)]K(Ac)[Pen][2‑amino‑3‑(4-(2-aminoethoxy)phenyl)propanoic acid][2‑amino‑3‑(6-hydroxynaphthalen-2-yl)propanoic acid][Thp]EN[3Pal][Sar]K(lipid)
modifications: disulfide 2-7 (inferred); ends not checked; also: Lys15 lipidated, lipid not given here
PBMC pSTAT3 IC50: > 1 nM

B13: SEQ ID NO: 198 (peptide)
peptide: [Pen]NT[Trp(7-Me)]K(Ac)[Pen][5‑(4-(2-amino-2-carboxyethyl)phenoxy)‑N,N,N‑trimethylpentan‑1‑aminium][2‑amino‑3‑(6-hydroxynaphthalen-2-yl)propanoic acid][Thp]K(Lipidated)N[3Pal][Sar]
modifications: disulfide 1-6 (inferred); ends not checked; also: K10: lipidated lysine, lipid not given here
PBMC pSTAT3 IC50: < 1 nM

Binder: R[Pen]NT[Trp(7-Me)]K(Ac)[Pen][2‑amino‑3‑(4-(2-aminoethoxy)phenyl)propanoic acid][2‑amino‑3‑(6-hydroxynaphthalen-2-yl)propanoic acid][Thp]K(Ac)N[3Pal][Sar] (disulfide 2-7 (inferred); ends not checked) [SEQ ID NO: 220]
PBMC pSTAT3 IC50: < 1 nM

B16: SEQ ID NO: 192 (peptide)
peptide: [Pen]ET[Trp(7-Me)]K(Lipidated)[Pen][2‑amino‑3‑(4-(2-aminoethoxy)phenyl)propanoic acid][2‑amino‑3‑(6-hydroxynaphthalen-2-yl)propanoic acid][Thp]K(Ac)N[3Pal][Sar]
modifications: disulfide 1-6 (inferred); ends not checked; also: K5: lipidated lysine, lipid not given here
PBMC pSTAT3 IC50: < 1 nM
